Assay results from US9186390B2, “Methods and uses of TIE2 binding and/or activating agents” (Sunnybrook Health Sciences Center, priority 2010, dated 2015).

Target: T1, Tie2 receptor (Mus musculus, UniProt Q02858)
T1 construct: from tissue; host or cells: lung of CD1 mice (in vivo dosing, lung homogenate)
Experiment: Tie2 activation in vivo (Tie2 immunoprecipitation from lung lysates, pY Tie2 western blot)
Set-up: species or system CD1 mice
Conditions: for time points at which activation of Tie2 (pY Tie2) was evident: pooled lung lysates of three mice
Method: The following commercially available antibodies were used: monoclonal anti-Tie2 (Phaminogen), polyclonal anti-Tie2 (Santa Cruz Biotechnology) and monoclonal anti-pY (clone 4G10, Upstate Biotechnology). Lung lysates were prepared and immunoprecipitated in full RIPA buffer (50 mM Tris-HCl, pH 7.4, 150 mM NaCl, 1 mM PMSF, 1 mM EDTA, 5 μg/ml Aprotinin 5 μg/ml Leupeptin, 1% Triton x-100, 1% Sodium deoxycholate, 0.1% SDS). Proteins were resolved in 10% PAGE according to Laemlli and transferred to PVDF membrane for subsequent antibody probing.
Purified Vasculotide was examined for its ability to activate the Tie2 receptor tyrosine kinase in CD1 mice (FIG. 1A). Three mice per group were injected intraperitoneally (IP) with either Vasculotide (500 ng-12.5 μg) or vehicle (PBS) control. After one hour, mice were sacrificed and lung homogenates were prepared for immunoblot analysis. […] This effect is particularly evident when total protein loading is accounted for (see pan Tie2, lower panel). While this may seem somewhat paradoxical, this phenomenon has also been reported by others while investigating the effect of Ang1 on Tie2 activation (Brkovic et al. (2007) J. Leukoc. Biol. 81(4), 1093-1101), Sturn et al. (2005) Microcirculation 12(5), 393-403, Murdoch et al. (2007) J Immunol 178(11), 7405-7411, van der Geer et al. (1994) Ann. Rev. Cell Biol. 10, 251-337, Gruber et al. (1995) Blood 86(7), 2488-2493, Maliba et al. (2008) J. Leukoc. Biol. 83(2), 352-360, and Van Slyke et al. (2009) Tissue Eng. Part A 15(6), 1269-1280).
To assess the duration of Tie2 activation following Vasculotide administration, three mice per time point were injected with 2 μg intraperitoneally (I.P.) or by gavage (P.O.). Lung lysates were prepared from each of the mice at the indicated times following initial dosing (FIG. 1B). Equal quantities of protein from each group were pooled and immunoprecipitated for Tie2 to establish an average Tie2 activation for each group. Activation of Tie2 (see pY Tie2, upper panels) was evident at time points ranging from 24-72 hours in the I.P. injected mice. By 96 hours post injection, the Tie2 receptor phosphorylation had returned to basal (PBS stimulated) levels.

T1 sequence (Q02858 23-1122): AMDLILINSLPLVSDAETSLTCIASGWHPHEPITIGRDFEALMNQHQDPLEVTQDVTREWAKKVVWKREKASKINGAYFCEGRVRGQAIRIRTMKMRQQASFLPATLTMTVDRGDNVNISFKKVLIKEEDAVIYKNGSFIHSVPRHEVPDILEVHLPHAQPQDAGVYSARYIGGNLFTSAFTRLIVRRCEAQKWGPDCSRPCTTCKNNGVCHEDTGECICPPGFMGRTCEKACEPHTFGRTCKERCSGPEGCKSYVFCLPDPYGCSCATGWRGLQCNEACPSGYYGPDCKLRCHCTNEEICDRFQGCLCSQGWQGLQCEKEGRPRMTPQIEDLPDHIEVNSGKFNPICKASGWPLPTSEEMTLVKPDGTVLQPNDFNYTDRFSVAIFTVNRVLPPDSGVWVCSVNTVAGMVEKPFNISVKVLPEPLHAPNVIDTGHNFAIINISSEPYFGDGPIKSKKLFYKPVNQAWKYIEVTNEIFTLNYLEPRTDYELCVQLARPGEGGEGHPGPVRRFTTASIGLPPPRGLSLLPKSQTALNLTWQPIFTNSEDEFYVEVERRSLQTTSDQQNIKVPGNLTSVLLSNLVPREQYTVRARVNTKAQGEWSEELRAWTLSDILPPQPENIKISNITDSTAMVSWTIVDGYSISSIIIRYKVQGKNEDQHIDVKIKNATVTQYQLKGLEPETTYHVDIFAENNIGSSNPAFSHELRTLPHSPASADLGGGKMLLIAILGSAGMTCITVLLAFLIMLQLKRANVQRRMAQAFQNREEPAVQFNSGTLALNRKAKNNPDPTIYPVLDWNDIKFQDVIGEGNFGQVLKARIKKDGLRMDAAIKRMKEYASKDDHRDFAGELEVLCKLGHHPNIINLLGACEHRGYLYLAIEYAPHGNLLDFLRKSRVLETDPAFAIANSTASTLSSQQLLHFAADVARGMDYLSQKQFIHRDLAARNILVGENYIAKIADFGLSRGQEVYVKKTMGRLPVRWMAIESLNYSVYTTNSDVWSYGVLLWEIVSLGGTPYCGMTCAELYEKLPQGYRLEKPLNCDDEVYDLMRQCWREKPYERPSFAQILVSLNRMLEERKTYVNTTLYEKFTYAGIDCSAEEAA

“Vasculotide: Modified T7 peptide (CHHHRHSF, SEQ ID NO:2) conjugated to 10 kDa tetrameric polyethylene glycol-maleimide; Tie2 binding peptide mimetic” was tested, and the “time points at which activation of Tie2 (pY Tie2) was evident” value (2 μg I.P.) was 24-72 hours, the “time points at which activation of Tie2 (pY Tie2) was evident” value (2 μg I.P., listed as Vasc-PEG) was “at least 72 hours” and the “time by which Tie2 receptor phosphorylation had returned to basal (PBS stimulated) levels” value (2 μg I.P., post injection) was 96 h. The “Tie2 phosphorylation after gavage (oral availability)” value (2 μg P.O., two hours post gavage) was “did not yield increased activation”, the “Tie2 receptor-activating activity at higher doses” value (I.P. doses above 500 ng up to 12.5 μg, 1 hour) was “reduced receptor-activating activity” and the “dose that activated Tie2 optimally (pY Tie2)” value (I.P., 1 hour in circulation, lung homogenates, doses 500 ng-12.5 μg) was 500 ng/25-30 g mouse.
